Experimental data from PMC10267149, “The structure of phosphatidylinositol remodeling MBOAT7 reveals its catalytic mechanism and enables inhibitor identification” (Nature Communications, 2023).

Substrate: CCCCC/C=C\C/C=C\C/C=C\C/C=C\CCCC(=O)SCCNC(=O)CCNC(=O)[C@H](O)C(C)(C)COP(=O)(O)OP(=O)(O)OC[C@H]1O[C@@H](n2cnc3c(N)ncnc32)[C@H](O)[C@@H]1OP(=O)(O)O
Test: fluorescence assay of CoA-SH release with CPM
Format: biochemical, Homo sapiens
Settings: PMAL-C8 reconstituted, 100 µM lyso-PI, pH 7.5, 37 °C, 2 mg/ml BSA

B1: MBOAT7 (Homo sapiens) (protein)
chain: MSPEEWTYLVVLLISIPIGFLFKKAGPGLKRWGAAAVGLGLTLFTCGPHTLHSLVTILGTWALIQAQPCSCHALALAWTFSYLLFFRALSLLGLPTPTPFTNAVQLLLTLKLVSLASEVQDLHLAQRKEMASGFSKGPTLGLLPDVPSLMETLSYSYCYVGIMTGPFFRYRTYLDWLEQPFPGAVPSLRPLLRRAWPAPLFGLLFLLSSHLFPLEAVREDAFYARPLPARLFYMIPVFFAFRMRFYVAWIAAECGCIAAGFGAYPVAAKARAGGGPTLQCPPPSSPEKAASLEYDYETIRNIDCYSTDFCVRVRDGMRYWNMTVQWWLAQYIYKSAPARSYVLRSAWTMLLSAYWHGLHPGYYLSFLTIPLCLAAEGRLESALRGRLSPGGQKAWDWVHWFLKMRAYDYMCMGFVLLSLADTLRYWASIYFCIHFLALAALGLGLALGGGSPSRRKAASQPTSLAPEKLREE
notes: full-length (1-472), C-terminal GFP-strepII removed by TEV; expressed in HEK293 freestyle cells; digitonin then amphipol PMAL-C8; monomer, 53 kDa
  Km: 46 µM
